We go through eight sequences from the supplement of paper PMC11246515.

± gives the standard deviation of the averaged measurements.

The data set is described as follows: total protein half-life in vivo (active degradation + dilution); higher = more stable protein.
Setting [1] is: E. coli NCM3722 delta-clpP delta-lon delta-hslV, growth: N-lim chemostat, doubling time 6 h.
The mark [2] stands for this setting: E. coli NCM3722 delta-clpP, growth: N-lim chemostat, doubling time 6 h.
Where [3] appears, read: E. coli NCM3722 delta-hslV, growth: N-lim chemostat, doubling time 6 h.
[4] abbreviates: E. coli NCM3722 delta-lon, growth: N-lim chemostat, doubling time 6 h.
Where [5] appears, read: E. coli NCM3722 delta-smpB, growth: N-lim chemostat, doubling time 6 h.
The mark [6] stands for this setting: wild type E. coli NCM3722, growth: C-lim chemostat, doubling time 3 h.
The mark [7] stands for this setting: wild type E. coli NCM3722, growth: C-lim chemostat, doubling time 6 h.
[8] abbreviates: wild type E. coli NCM3722, growth: C-lim chemostat, doubling time 12 h.
The mark [9] stands for this setting: wild type E. coli NCM3722, growth: N-lim chemostat, doubling time 6 h.
The mark [10] stands for this setting: wild type E. coli NCM3722, growth: N-lim chemostat, doubling time 12 h.
Where [11] appears, read: wild type E. coli NCM3722, growth: P-lim chemostat, doubling time 6 h.
Setting [12] is: wild type E. coli NCM3722, growth: P-lim chemostat, doubling time 12 h.

For the sequence “MINVLLVDDHELVRAGIRRILEDIKGIKVVGEASCGEDAVKWCRTNAVDVVLMDMSMPGIGGLEATRKIARSTADVKIIMLTVHTENPLPAKVMQAGAAGYLSKGAAPQEVVSAIRSVYSGQRYIASDIAQQMALSQIEPEKTESPFASLSERELQIMLMITKGQKVNEISEQLNLSPKTVNSYRYRMFSKLNIHGDVELTHLAIRHGLCNAETLSSQ [P0AED5]”, the “total protein half-life in vivo” value runs as follows: under setting [1], 5.39 ± 0.6 h; under setting [2], 2.492 ± 0.024 h; under setting [3], 1.84 ± 0.24 h; under setting [4], 2.66 ± 0.048 h; under setting [5], 1.67 ± 0.048 h; under setting [6], 1.72 ± 0.12 h. Besides, the “total protein half-life in vivo” value turned out to be 3.04 ± 0.16 h under setting [7]; 4.05 ± 0.16 h under setting [8]; 1.89 ± 0.24 h under setting [9]; 2.67 ± 0.15 h under setting [10]; 1.8 ± 0.087 h under setting [11]; 3.89 ± 0.4 h under setting [12].
In the case of “MTPLRVFRKTTPLVNTIRLSLLPLAGLSFSAFAAQVNIAPGSLDKALNQYAAHSGFTLSVDASLTRGKQSNGLHGDYDVESGLQQLLDGSGLQVKPLGNNSWTLEPAPAPKEDALTVVGDWLGDARENDVFEHAGARDVIRREDFAKTGATTMREVLNRIPGVSAPENNGTGSHDLAMNFGIRGLNPRLASRSTVLMDGIPVPFAPYGQPQLSLAPVSLGNMDAIDVVRGGGAVRYGPQSVGGVVNFVTRAIPQDFGIEAGVEGQLSPTSSQNNPKETHNLMVGGTADNGFGTALLYSGTRGSDWREHSATRIDDLMLKSKYAPDEVHTFNSLLQYYDGEADMPGGLSRADYDADRWQSTRPYDRFWGRRKLASLGYQFQPDSQHKFNIQGFYTQTLRSGYLEQGKRITLSPRNYWVRGIEPRYSQIFMIGPSAHEVGVGYRYLNESTHEMRYYTATSSGQLPSGSSPYDRDTRSGTEAHAWYLDDKIDIGNWTITPGMRFEHIESYQNNAITGTHEEVSYNAPLPALNVLYHLTDSWNLYANTEGSFGTVQYSQIGKAVQSGNVEPEKARTWELGTRYDDGALTAEMGLFLINFNNQYDSNQTNDTVTARGKTRHTGLETQARYDLGTLTPTLDNVSIYASYAYVNAEIREKGDTYGNLVPFSPKHKGTLGVDYKPGNWTFNLNSDFQSSQFADNANTVKESADGSTGRIPGFMLWGARVAYDFGPQMADLNLAFGVKNIFDQDYFIRSYDDNNKGIYAGQPRTLYMQGSLKF”, the “total protein half-life in vivo” value is 6.44 ± 0.23 h under setting [2]; 6.48 h under setting [4]; more than 8 h under setting [5]; 3.66 h under setting [6]; 5.3 ± 0.92 h under setting [9]; more than 16 h under setting [10].
With “MKGGKRVQTARPNRINGEIRAQEVRLTGLEGEQLGIVSLREALEKAEEAGVDLVEISPNAEPPVCRIMDYGKFLYEKSKSSKEQKKKQKVIQVKEIKFRPGTDEGDYQVKLRSLIRFLEEGDKAKITLRFRGREMAHQQIGMEVLNRVKDDLQELAVVESFPTKIEGRQMIMVLAPKKKQ [P0A707]”, the “total protein half-life in vivo” value reads like this: under setting [1], 5.98 ± 0.11 h; under setting [2], 5.66 ± 0.61 h; under setting [3], 5.02 ± 0.54 h; under setting [4], 6.492 ± 0.032 h; under setting [5], 5.12 ± 0.1 h; under setting [6], 3.35 ± 0.084 h. Besides, the “total protein half-life in vivo” value reads like this: under setting [7], 5.555 ± 0.039 h; under setting [8], 10.5 ± 0.76 h; under setting [9], 4.69 ± 0.57 h; under setting [10], 10.9 ± 1.7 h; under setting [11], 4.89 ± 0.27 h; under setting [12], 10.4 ± 0.88 h.
With “MPYDSVYSEKRPPGTLRTAWRKFYSDASAMVGLYGCAGLAVLCIFGGWFAPYGIDQQFLGYQLLPPSWSRYGEVSFFLGTDDLGRDVLSRLLSGAAPTVGGAFVVTLAATICGLVLGTFAGATHGLRSAVLNHILDTLLAIPSLLLAIIVVAFAGPSLSHAMFAVWLALLPRMVRSIYSMVHDELEKEYVIAARLDGASTLNILWFAVMPNITAGLVTEITRALSMAILDIAALGFLDLGAQLPSPEWGAMLGDALELIYVAPWTVMLPGAAIMISVLLVNLLGDGVRRAIIAGVE [P0AGH5]”, the “total protein half-life in vivo” value runs as follows: under setting [1], 6.49 h; under setting [2], 6.66 h; under setting [6], 3.28 ± 0.12 h; under setting [8], 11.5 h; under setting [9], 6.2 ± 0.26 h; under setting [10], 12.8 h. In addition, the “total protein half-life in vivo” value was found to be 5.92 h under setting [11] and 13.7 h under setting [12].
For the sequence “MKVTFEQLKAAFNRVLISRGVDSETADACAEMFARTTESGVYSHGVNRFPRFIQQLENGDIIPDAQPKRITSLGAIEQWDAQRSIGNLTAKKMMDRAIELAADHGIGLVALRNANHWMRGGSYGWQAAEKGYIGICWTNSIAVMPPWGAKECRIGTNPLIVAIPSTPITMVDMSMSMFSYGMLEVNRLAGRQLPVDGGFDDEGNLTKEPGVIEKNRRILPMGYWKGSGMSIVLDMIATLLSDGASVAEVTQDNSDEYGISQIFIAIEVDKLIDGPTRDAKLQRIMDYVTSAERADENQAIRLPGHEFTTLLAENRRNGITVDDSVWAKIQAL”, the “total protein half-life in vivo” value under setting [6] turned out to be 2.77 ± 0.16 h, the “total protein half-life in vivo” value under setting [7] turned out to be 5.23 ± 0.17 h and the “total protein half-life in vivo” value under setting [8] was 9.43 ± 1.9 h.
Take “MILTPIRRYGAMILMLLTLVFSSEVLAKTHTTTASQKSHLTKASNKQVSSKQEYSRNSAKSSSLPDLRKYPSGTPRKKAFLRTVMPYITSQNAAITAERNWLISKQYQGQWSPAERARLKDIAKRYKVKWSGNTRKIPWNTLLERVDIIPTSMVATMAAAESGWGTSKLARNNNNLFGMKCMKGRCTNAPGKVKGYSQFSSVKESVSAYVTNLNTHPAYSSFRKSRAQLRKADQEVTATAMIHKLKGYSTKGKSYNNYLFAMYQDNQRLIAAHM”: the “total protein half-life in vivo” value under setting [1] is 0.848 h; the “total protein half-life in vivo” value under setting [5] is 3.76 ± 0.26 h; the “total protein half-life in vivo” value under setting [6] was 1.22 h; the “total protein half-life in vivo” value under setting [7] stood at 2.47 ± 0.18 h; the “total protein half-life in vivo” value under setting [8] came to 5.88 ± 0.34 h.
For “MIDYTAAGFTLLQGAHLYAPEDRGICDVLVANGKIIAVASNIPSDIVPNCTVVDLSGQILCPGFIDQHVHLIGGGGEAGPTTRTPEVALSRLTEAGVTSVVGLLGTDSISRHPESLLAKTRALNEEGISAWMLTGAYHVPSRTITGSVEKDVAIIDRVIGVKCAISDHRSAAPDVYHLANMAAESRVGGLLGGKPGVTVFHMGDSKKALQPIYDLLENCDVPISKLLPTHVNRNVPLFEQALEFARKGGTIDITSSIDEPVAPAEGIARAVQAGIPLARVTLSSDGNGSQPFFDDEGNLTHIGVAGFETLLETVQVLVKDYDFSISDALRPLTSSVAGFLNLTGKGEILPGNDADLLVMTPELRIEQVYARGKLMVKDGKACVKGTFETA”, the “total protein half-life in vivo” value by setting is: under setting [1], 6.21 ± 0.27 h; under setting [2], 5.9 ± 0.13 h; under setting [3], 5.497 ± 0.0056 h; under setting [4], 5.68 ± 0.064 h; under setting [5], 5.3 ± 0.21 h; under setting [6], 2.93 ± 0.1 h. Moreover, the “total protein half-life in vivo” value is, setting by setting: under setting [7], 5.97 ± 0.45 h; under setting [8], 12.8 ± 0.66 h; under setting [9], 5.29 ± 0.25 h; under setting [10], 9.01 ± 0.33 h; under setting [11], 6.11 ± 0.39 h; under setting [12], 13.1 ± 0.29 h.
On to “MQSVDVAIVGGGMVGLAVACGLQGSGLRVAVLEQRVQEPLAANAPPQLRVSAINAASEKLLTRLGVWQDILSRRASCYHGMEVWDKDSFGHISFDDQSMGYSHLGHIVENSVIHYALWNKAHQSSDITLLAPAELQQVAWGENETFLTLKDGSMLTARLVIGADGANSWLRNKADIPLTFWDYQHHALVATIRTEEPHDAVARQVFHGEGILAFLPLSDPHLCSIVWSLSPEEAQRMQQASEDEFNRALNIAFDNRLGLCKVESARQVFPLTGRYARQFASHRLALVGDAAHTIHPLAGQGVNLGFMDAAELIAELKRLHRQGKDIGQYIYLRRYERSRKHSAALMLAGMQGFRDLFSGTNPAKKLLRDIGLKLADTLPGVKPQLIRQAMGLNDLPEWLR”, for which the “total protein half-life in vivo” value reads like this: under setting [1], 5.67 ± 0.7 h; under setting [2], 5.28 ± 0.23 h; under setting [3], 4.33 ± 0.36 h; under setting [4], 4.06 ± 0.068 h; under setting [5], 4.06 ± 0.21 h; under setting [6], 2.864 ± 0.025 h. In addition, the “total protein half-life in vivo” value worked out at 5.52 ± 0.85 h under setting [7]; 7.26 ± 0.26 h under setting [8]; 4.1 ± 0.084 h under setting [9]; 7.19 ± 0.06 h under setting [10]; 3.16 ± 0.12 h under setting [11]; 5.3 ± 0.84 h under setting [12].
